Experimental findings from PMC3436905 are described below.

Where two headings read alike, the source gives them in different places.

In experiment [1] the target is surface vimentin (human (endogenous in HeLa and HT-29)) (UniProt P08670). Briefly: flow cytometry on cells. A general note: A flow cytometer gives signals particle by particle.
For experiment [2] the target is unchanged. Briefly: flow cytometry on cells. The source holds these as a separate data set.

Sequence of UniProt P08670 (P08670 whole entry): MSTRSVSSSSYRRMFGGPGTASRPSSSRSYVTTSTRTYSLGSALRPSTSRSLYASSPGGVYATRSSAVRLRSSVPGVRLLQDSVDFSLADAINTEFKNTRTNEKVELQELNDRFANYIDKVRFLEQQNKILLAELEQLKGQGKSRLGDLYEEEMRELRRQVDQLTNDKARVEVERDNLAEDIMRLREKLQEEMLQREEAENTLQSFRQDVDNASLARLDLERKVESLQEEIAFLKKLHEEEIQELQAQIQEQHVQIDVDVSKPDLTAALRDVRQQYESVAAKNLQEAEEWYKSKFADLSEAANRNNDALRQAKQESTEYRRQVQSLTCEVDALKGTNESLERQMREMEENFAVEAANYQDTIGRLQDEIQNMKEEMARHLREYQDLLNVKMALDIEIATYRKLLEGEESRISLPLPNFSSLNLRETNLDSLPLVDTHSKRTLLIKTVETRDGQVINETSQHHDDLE

Take “Cowpea mosaic virus nanoparticles (complex)”: the percent of cells positive for CPMV uptake amounted to 38% in experiment [1] and 17% in experiment [2].
